Experimental data: paper PMC7881136, “Mechanism of karyopherin-β2 binding and nuclear import of ALS variants FUS(P525L) and FUS(R495X)” (Scientific Reports, 2021)
Values belong to the binder of their own block, whether it stands above or below them.

Tests used:
Details in all cases: both partners purified
[1] = molecular target: T1, Kapβ2 (untagged, GST removed) (human, UniProt Q92973-2 1-890); assay: ITC; quality control of the Kapβ2 preparations with MBP-hnRNP A1 PY-NLS; set-up not told
T1 construct: Karyopherin β2 (Kapβ2, Transportin-1, TNPO1), human; used for ITC and turbidity assays; also called Karyopherin-β2; Transportin-1; source: E. coli BL21 (DE3), purified (GSH column, Tev cleavage, anion exchange, SEC Superdex200)
T1 sequence (looked up): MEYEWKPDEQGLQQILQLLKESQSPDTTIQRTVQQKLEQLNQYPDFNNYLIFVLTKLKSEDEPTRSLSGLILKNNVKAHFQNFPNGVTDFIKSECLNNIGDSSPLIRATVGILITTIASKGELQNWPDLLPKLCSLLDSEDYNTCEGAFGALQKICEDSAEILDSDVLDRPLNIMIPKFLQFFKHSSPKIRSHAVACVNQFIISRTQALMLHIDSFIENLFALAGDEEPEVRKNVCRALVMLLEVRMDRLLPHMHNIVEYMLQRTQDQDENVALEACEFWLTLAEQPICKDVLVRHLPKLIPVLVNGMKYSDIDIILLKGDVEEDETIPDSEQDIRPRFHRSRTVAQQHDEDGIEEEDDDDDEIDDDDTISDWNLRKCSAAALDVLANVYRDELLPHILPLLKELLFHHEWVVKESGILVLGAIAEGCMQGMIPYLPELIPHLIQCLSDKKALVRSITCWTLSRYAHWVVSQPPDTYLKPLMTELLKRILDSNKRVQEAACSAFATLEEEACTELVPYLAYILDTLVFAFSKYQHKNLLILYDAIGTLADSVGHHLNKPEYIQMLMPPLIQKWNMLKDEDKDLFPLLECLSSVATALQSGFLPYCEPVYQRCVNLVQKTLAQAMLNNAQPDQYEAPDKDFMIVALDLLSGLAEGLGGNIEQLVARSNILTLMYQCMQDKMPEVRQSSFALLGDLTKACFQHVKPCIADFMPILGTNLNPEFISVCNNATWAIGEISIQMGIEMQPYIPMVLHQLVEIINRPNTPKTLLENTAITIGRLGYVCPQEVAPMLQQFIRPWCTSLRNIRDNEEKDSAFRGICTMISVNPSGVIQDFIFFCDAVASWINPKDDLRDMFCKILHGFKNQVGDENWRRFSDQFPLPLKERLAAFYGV

[2] = molecular target: T2, FUS(P525L)^PY-NLS (475–526, P525L), MBP removed (UniProt P35637 475-526, P525L); assay: crystal structure; Kapβ2ΔLoop·FUS(P525L) PY-NLS complex, 2.7 Å, space group P2(1)2(1)2, molecular replacement; crystals from 1 M succinic acid pH 7.0, 1% PEG MME2000, 20 °C
T2 construct: FUS residues 475–526 with the ALS mutation P525L; residues 507–526 modeled in the crystal structure; also called FUS(475–526, P525L); FUS PY-NLS(P525L); source: E. coli, lysed together with bacteria expressing GST-Kapβ2ΔLoop; complex purified (GSH sepharose, amylose, TEV, gel filtration); not shown: MBP, N-terminal, cleaved
T2 sequence (looked up): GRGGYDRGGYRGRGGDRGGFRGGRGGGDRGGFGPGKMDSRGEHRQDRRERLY

[3] = molecular target: T1, Kapβ2 (untagged, GST removed); assay: ITC; reversed set-up: 10 μM MBP-FUS protein in the cell, 100 μM or 200 μM Kapβ2 in the syringe; 20 mM Tris–HCl, 150 mM NaCl, 10% glycerol, 2 mM BME; 20 °C; single class of binding sites; 'apparent' KD for FUS(1–370)

Kd [1]: ~50 nM
B1: MBP-hnRNP A1 PY-NLS (domain or fragment)
chain: GGSYNDFGNYNNQSSNFGPMKGGNFGGRSSGPYGGGGQYFAKPRNQGGY
modifications: Limits not printed: conventional hnRNP A1 PY-NLS (M9) construct 257-305 in the 320-aa A1-A isoform, shifted by +52 to the 372-aa canonical entry. MBP omitted.

binding result [2]: binds
B2: Kapβ2ΔLoop (residues 337–367 replaced with a GGSGGSG linker) (natural protein, human)
chain: MEYEWKPDEQGLQQILQLLKESQSPDTTIQRTVQQKLEQLNQYPDFNNYLIFVLTKLKSEDEPTRSLSGLILKNNVKAHFQNFPNGVTDFIKSECLNNIGDSSPLIRATVGILITTIASKGELQNWPDLLPKLCSLLDSEDYNTCEGAFGALQKICEDSAEILDSDVLDRPLNIMIPKFLQFFKHSSPKIRSHAVACVNQFIISRTQALMLHIDSFIENLFALAGDEEPEVRKNVCRALVMLLEVRMDRLLPHMHNIVEYMLQRTQDQDENVALEACEFWLTLAEQPICKDVLVRHLPKLIPVLVNGMKYSDIDIILLKGDVEEDETIPDSEQDIRGGSGGSGDTISDWNLRKCSAAALDVLANVYRDELLPHILPLLKELLFHHEWVVKESGILVLGAIAEGCMQGMIPYLPELIPHLIQCLSDKKALVRSITCWTLSRYAHWVVSQPPDTYLKPLMTELLKRILDSNKRVQEAACSAFATLEEEACTELVPYLAYILDTLVFAFSKYQHKNLLILYDAIGTLADSVGHHLNKPEYIQMLMPPLIQKWNMLKDEDKDLFPLLECLSSVATALQSGFLPYCEPVYQRCVNLVQKTLAQAMLNNAQPDQYEAPDKDFMIVALDLLSGLAEGLGGNIEQLVARSNILTLMYQCMQDKMPEVRQSSFALLGDLTKACFQHVKPCIADFMPILGTNLNPEFISVCNNATWAIGEISIQMGIEMQPYIPMVLHQLVEIINRPNTPKTLLENTAITIGRLGYVCPQEVAPMLQQFIRPWCTSLRNIRDNEEKDSAFRGICTMISVNPSGVIQDFIFFCDAVASWINPKDDLRDMFCKILHGFKNQVGDENWRRFSDQFPLPLKERLAAFYGV
notes: linker that replaces residues 337–367; crystallisation construct; also called GST-Kapβ2ΔLoop; source: E. coli, lysed together with bacteria expressing MBP-FUS(475–526, P525L); complex purified (GSH sepharose, amylose, TEV, gel filtration)

Kd [3]: 330 nM
B3: MBP-FUS(R495X) (residues 1–494) (domain or fragment, UniProt P35637 1-494, looked up)
chain: MASNDYTQQATQSYGAYPTQPGQGYSQQSSQPYGQQSYSGYSQSTDTSGYGQSSYSSYGQSQNTGYGTQSTPQGYGSTGGYGSSQSSQSSYGQQSSYPGYGQQPAPSSTSGSYGSSSQSSSYGQPQSGSYSQQPSYGGQQQSYGQQQSYNPPQGYGQQNQYNSSSGGGGGGGGGGNYGQDQSSMSSGGGSGGGYGNQDQSGGGGSGGYGQQDRGGRGRGGSGGGGGGGGGGYNRSSGGYEPRGRGGGRGGRGGMGGSDRGGFNKFGGPRDQGSRHDSEQDNSDNNTIFVQGLGENVTIESVADYFKQIGIIKTNKKTGQPMINLYTDRETGKLKGEATVSFDDPPSAKAAIDWFDGKEFSGNPIKVSFATRRADFNRGGGNGRGGRGRGGPMGRGGYGGGGSGGGGRGGFPSGGGGGGGQQRAGDWKCPNPTCENMNFSWRNECNQCKAPKPDGPGGGPGGSHMGGNYGDDRRGGRGGYDRGGYRGRGGDRGGF
notes: source: E. coli BL21 (DE3), purified (amylose resin, SEC); not shown: MBP, N-terminal, kept
